Tests used:
[1] = biological target: histone H2A (bovine (calf thymus)) (UniProt P0C0S9)
[2] = biological target: M1 protein on the surface of live GAS M1T1 5448 wild type (group A Streptococcus (endogenous in strain M1T1 5448)) (UniProt Q99XV0); experiment: immunogold transmission electron microscopy; bacteria with 31.25 μg/mL histone H2A, 30 min at 37 °C, washed, fixed with 2% PFA; anti-histone H2A antibody and 15 nm immunogold secondary antibody; particles counted on >20 bacteria

Substance | histone MIC for the GAS Δemm1 mutant with exogenous 10 μM recombinant NT fragment (rNT) [1] | gold particles per bacterium (gold-particles per bacterium) [2]
M1 protein fragment A+B (residues 42-194), recombinant NT fragment (from UniProt Q99XV0 42-194) (domain or fragment) | 2 fold | –
histone H2A (from UniProt P0C0S9 1-130) (natural protein) | – | > 30

Reference: PMC5318940
